The text below walks through data of PMC11748629, “Unidirectional MCM translocation away from ORC drives origin licensing” (Nature Communications, 2025).

The target of the assay is T1, Mcm5 R549A (Saccharomyces cerevisiae, UniProt P29496 1-775, R549A).
T1 construct: Mcm5, S. cerevisiae; Subunit of m7, written alone for the contacts seen in OC1M^Mcm5RA; also called Mcm5RA; source: S. cerevisiae strain yGC226, purified as a subunit of MCM-Cdt1
T1 sequence: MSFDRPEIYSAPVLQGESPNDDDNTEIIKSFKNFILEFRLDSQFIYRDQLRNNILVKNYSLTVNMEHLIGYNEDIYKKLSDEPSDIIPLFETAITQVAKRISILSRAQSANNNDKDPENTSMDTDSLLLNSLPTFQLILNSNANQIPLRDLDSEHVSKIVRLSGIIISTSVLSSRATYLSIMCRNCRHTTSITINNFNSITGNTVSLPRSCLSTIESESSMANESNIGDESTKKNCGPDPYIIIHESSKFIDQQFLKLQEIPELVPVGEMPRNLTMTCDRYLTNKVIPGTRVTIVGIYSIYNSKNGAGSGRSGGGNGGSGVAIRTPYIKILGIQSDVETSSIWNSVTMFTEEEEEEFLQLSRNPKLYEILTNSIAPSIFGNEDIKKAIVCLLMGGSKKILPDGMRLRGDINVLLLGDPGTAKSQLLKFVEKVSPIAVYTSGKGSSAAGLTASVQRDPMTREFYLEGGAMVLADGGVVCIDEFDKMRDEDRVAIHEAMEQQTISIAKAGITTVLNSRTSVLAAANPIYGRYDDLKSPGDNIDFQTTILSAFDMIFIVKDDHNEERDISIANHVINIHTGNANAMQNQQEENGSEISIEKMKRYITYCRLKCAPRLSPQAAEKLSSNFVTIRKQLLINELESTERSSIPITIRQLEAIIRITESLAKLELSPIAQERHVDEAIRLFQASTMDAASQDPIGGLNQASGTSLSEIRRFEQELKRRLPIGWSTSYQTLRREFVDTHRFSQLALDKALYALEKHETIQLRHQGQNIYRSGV
Kind of assay: cryo-EM structure; OC1M^Mcm5RA: 30 nM MH-ARS1-MH DNA, 60 nM ORC, 90 nM Cdc6, 60 nM MCM-Cdt1 (Mcm5 R549A), 2 mM ATP; same buffer; 30 °C, 30 min; conformer 1 at 3.7 Å, conformer 2 at 3.4 Å (Orc1 ATPase domain seen only in conformer 1). The note with it: both partners purified.

B1: Orc3 (natural protein, Saccharomyces cerevisiae)
chain: MSDLNQSKKMNVSEFADAQRSHYTVYPSLPQSNKNDKHIPFVKLLSGKESEVNVEKRWELYHQLHSHFHDQVDHIIDNIEADLKAEISDLLYSETTQKRRCFNTIFLLGSDSTTKIELKDESSRYNVLIELTPKESPNVRMMLRRSMYKLYSAADAEEHPTIKYEDINDEDGDFTEQNNDVSYDLSLVENFKRLFGKDLAMVFNFKDVDSINFNTLDNFIILLKSAFKYDHVKISLIFNINTNLSNIEKNLRQSTIRLLKRNYHKLDVSSNKGFKYGNQIFQSFLDTVDGKLNLSDRFVEFILSKMANNTNHNLQLLTKMLDYSLMSYFFQNAFSVFIDPVNVDFLNDDYLKILSRCPTFMFFVEGLIKQHAPADEILSLLTNKNRGLEEFFVEFLVRENPINGHAKFVARFLEEELNITNFNLIELYHNLLIGKLDSYLDRWSACKEYKDRLHFEPIDTIFQELFTLDNRSGLLTQSIFPSYKSNIEDNLLSWEQVLPSLDKENYDTLSGDLDKIMAPVLGQLFKLYREANMTINIYDFYIAFRETLPKEEILNFIRKDPSNTKLLELAETPDAFDKVALILFMQAIFAFENMGLIKFQSTKSYDLVEKCVWRGI
notes: Orc3, S. cerevisiae; Subunit of m1, written alone for the contacts seen in the structures; also called Orc3 subunit of ORC; source: S. cerevisiae strain ySD-ORC, purified as a subunit of ORC
Turning to B1, the binding result is “binds”.
